# Test results as given in patent US12097241B2, “Methods of treating kidney failure, and/or improving or stablizing renal function using modified relaxin polypeptides” (BRISTOL-MYERS SQUIBB COMPANY, priority 2017, dated 2024).
# Assay: In vivo pharmacokinetic (PK) studies in rats
# Parameters: species or system Sprague-Dawley rats
# Settings: rat, male Sprague-Dawley rats, single SC dose 1.0 mg/kg, serum ELISA; for AUC(0-inf): read-out: Rat PK AUC Total; for level at time molar at 24 h: read-out: Rat PK C24
# Protocol: […] Blood samples were collected via jugular vein at different time points out to 72 hours. Blood samples were allowed to coagulate at room temperature (30-60 m) and then centrifuged (1500-2000) at 4° C. to obtain serum. After centrifugation serum samples were transferred to 96 well plates and stored at −80° C. until bioanalysis. Relaxin concentrations were measured from serum by ELISA.
# Relaxin concentration-time profiles from individual animals were used for analysis. Pharmacokinetic parameters were calculated by non-compartmental methods using Phoenix WinNonlin (version 6.4) or Kinetica (version 5). Mean pharmacokinetic parameters Cmax, AUCinf, C24 and half-life were reported (Table 4). Table 4. In vivo PK data (abbreviations as in Table 3).
SMILES,AUC(0-inf) [µM·h],level at time molar at 24 h [nM]
CC[C@H](C)[C@@H]1NC(=O)[C@H](C)NC(=O)[C@H]([C@@H](C)CC)NC(=O)[C@H](CCC(N)=O)NC(=O)[C@H](C)NC(=O)[C@H](CCCNC(=N)N)NC(=O)[C@H](C(C)C)NC(=O)[C@H](CC(C)C)NC(=O)[C@H](CCC(=O)O)NC(=O)[C@H](CCCNC(=N)N)NC(=O)CNC(=O)[C@@H](NC(=O)[C@H](CC(C)C)NC(=O)[C@H](CCCCN)NC(=O)[C@@H](NC(=O)[C@@H](NC(=O)[C@H](CCC(=O)O)NC(=O)[C@H](CCC(=O)O)NC(=O)[C@H](CCSC)NC(=O)[C@H](Cc2c[nH]c3ccccc23)NC(=O)[C@H](CO)NC(=O)[C@H](C)N)C(C)C)[C@@H](C)CC)CSSC[C@@H]2NC(=O)[C@@H](NC(=O)[C@H](CCCCN)NC(=O)[C@H](CC(N)=O)NC(=O)[C@H](C)NC(=O)[C@H](CC(C)C)NC(=O)[C@H](C)NC(=O)[C@H](CO)NC(=O)[C@H](Cc3ccc(O)cc3)NC(=O)[C@H](CC(C)C)NC(=O)[C@@H](N)Cc3ccc(C(C)=NOCCNC(=O)[C@H](CCCCN)NC(=O)[C@H](CCCCN)NC(=O)[C@H](CCCCN)NC(=O)[C@H](CCCCN)NC(=O)[C@H](CCCCN)NC(=O)[C@H](CCCCN)NC(=O)CC[C@H](NC(=O)CCCCCCCCCCCCC(=O)O)C(=O)O)cc3)CSSC[C@H](NC(=O)CNC(=O)[C@H](C(C)C)NC(=O)[C@H](Cc3c[nH]cn3)NC2=O)C(=O)N[C@@H]([C@@H](C)O)C(=O)N[C@@H](CCCCN)C(=O)N[C@@H](CCCNC(=N)N)C(=O)N[C@@H](CO)C(=O)N[C@@H](CC(C)C)C(=O)N[C@@H](C)C(=O)N[C@@H](CCCNC(=N)N)C(=O)N[C@@H](Cc2ccccc2)C(=O)N[C@H](C(=O)O)CSSC[C@@H](C(=O)NCC(=O)N[C@@H](CCSC)C(=O)N[C@@H](CO)C(=O)N[C@H](C(=O)N[C@@H](Cc2c[nH]c3ccccc23)C(=O)N[C@@H](CO)C(=O)O)[C@@H](C)O)NC1=O [AQ1-KKKKKK-Glu^γ-C13-COOH],0.038,0.05
CC[C@H](C)[C@@H]1NC(=O)[C@H](C)NC(=O)[C@H]([C@@H](C)CC)NC(=O)[C@H](CCC(N)=O)NC(=O)[C@H](C)NC(=O)[C@H](CCCNC(=N)N)NC(=O)[C@H](C(C)C)NC(=O)[C@H](CC(C)C)NC(=O)[C@H](CCC(=O)O)NC(=O)[C@H](CCCNC(=N)N)NC(=O)CNC(=O)[C@@H](NC(=O)[C@H](CC(C)C)NC(=O)[C@H](CCCCN)NC(=O)[C@@H](NC(=O)[C@@H](NC(=O)[C@H](CCC(=O)O)NC(=O)[C@H](CCC(=O)O)NC(=O)[C@H](CCSC)NC(=O)[C@H](Cc2c[nH]c3ccccc23)NC(=O)[C@H](CO)NC(=O)[C@H](C)N)C(C)C)[C@@H](C)CC)CSSC[C@@H]2NC(=O)[C@@H](NC(=O)[C@H](CCCCN)NC(=O)[C@H](CC(N)=O)NC(=O)[C@H](C)NC(=O)[C@H](CC(C)C)NC(=O)[C@H](C)NC(=O)[C@H](CO)NC(=O)[C@H](Cc3ccc(O)cc3)NC(=O)[C@H](CC(C)C)NC(=O)[C@@H](N)Cc3ccc(C(C)=NOCCNC(=O)CNC(=O)CNC(=O)CNC(=O)[C@H](CCC(=O)O)NC(=O)[C@H](CCC(=O)O)NC(=O)[C@H](CCC(=O)O)NC(=O)CC[C@H](NC(=O)CCCCCCCCCCCCC(=O)O)C(=O)O)cc3)CSSC[C@H](NC(=O)CNC(=O)[C@H](C(C)C)NC(=O)[C@H](Cc3c[nH]cn3)NC2=O)C(=O)N[C@@H]([C@@H](C)O)C(=O)N[C@@H](CCCCN)C(=O)N[C@@H](CCCNC(=N)N)C(=O)N[C@@H](CO)C(=O)N[C@@H](CC(C)C)C(=O)N[C@@H](C)C(=O)N[C@@H](CCCNC(=N)N)C(=O)N[C@@H](Cc2ccccc2)C(=O)N[C@H](C(=O)O)CSSC[C@@H](C(=O)NCC(=O)N[C@@H](CCSC)C(=O)N[C@@H](CO)C(=O)N[C@H](C(=O)N[C@@H](Cc2c[nH]c3ccccc23)C(=O)N[C@@H](CO)C(=O)O)[C@@H](C)O)NC1=O [AQ1-GGGEEE-Glu^γ-C13-COOH],0.866,0.18
CC[C@H](C)[C@@H]1NC(=O)[C@H](C)NC(=O)[C@H]([C@@H](C)CC)NC(=O)[C@H](CCC(N)=O)NC(=O)[C@H](C)NC(=O)[C@H](CCCNC(=N)N)NC(=O)[C@H](C(C)C)NC(=O)[C@H](CC(C)C)NC(=O)[C@H](CCC(=O)O)NC(=O)[C@H](CCCNC(=N)N)NC(=O)CNC(=O)[C@@H](NC(=O)[C@H](CC(C)C)NC(=O)[C@H](CCCCN)NC(=O)[C@@H](NC(=O)[C@@H](NC(=O)[C@H](CCC(=O)O)NC(=O)[C@H](CCC(=O)O)NC(=O)[C@H](CCSC)NC(=O)[C@H](Cc2c[nH]c3ccccc23)NC(=O)[C@H](CO)NC(=O)[C@H](C)N)C(C)C)[C@@H](C)CC)CSSC[C@@H]2NC(=O)[C@@H](NC(=O)[C@H](CCCCN)NC(=O)[C@H](CC(N)=O)NC(=O)[C@H](C)NC(=O)[C@H](CC(C)C)NC(=O)[C@H](C)NC(=O)[C@H](CO)NC(=O)[C@H](Cc3ccc(O)cc3)NC(=O)[C@H](CC(C)C)NC(=O)[C@@H](N)Cc3ccc(C(C)=NOCCNC(=O)[C@H](CCC(=O)O)NC(=O)[C@H](CCC(=O)O)NC(=O)[C@H](CCC(=O)O)NC(=O)CNC(=O)CNC(=O)CNC(=O)CC[C@H](NC(=O)CCCCCCCCCCCCCCC(=O)O)C(=O)O)cc3)CSSC[C@H](NC(=O)CNC(=O)[C@H](C(C)C)NC(=O)[C@H](Cc3c[nH]cn3)NC2=O)C(=O)N[C@@H]([C@@H](C)O)C(=O)N[C@@H](CCCCN)C(=O)N[C@@H](CCCNC(=N)N)C(=O)N[C@@H](CO)C(=O)N[C@@H](CC(C)C)C(=O)N[C@@H](C)C(=O)N[C@@H](CCCNC(=N)N)C(=O)N[C@@H](Cc2ccccc2)C(=O)N[C@H](C(=O)O)CSSC[C@@H](C(=O)NCC(=O)N[C@@H](CCSC)C(=O)N[C@@H](CO)C(=O)N[C@H](C(=O)N[C@@H](Cc2c[nH]c3ccccc23)C(=O)N[C@@H](CO)C(=O)O)[C@@H](C)O)NC1=O [AQ1-EEEGGG-Glu^γ-C15-COOH],3.55,22
CC[C@H](C)[C@@H]1NC(=O)[C@H](C)NC(=O)[C@H]([C@@H](C)CC)NC(=O)[C@H](CCC(N)=O)NC(=O)[C@H](C)NC(=O)[C@H](CCCNC(=N)N)NC(=O)[C@H](C(C)C)NC(=O)[C@H](CC(C)C)NC(=O)[C@H](CCC(=O)O)NC(=O)[C@H](CCCNC(=N)N)NC(=O)CNC(=O)[C@@H](NC(=O)[C@H](CC(C)C)NC(=O)[C@H](CCCCN)NC(=O)[C@@H](NC(=O)[C@@H](NC(=O)[C@H](CCC(=O)O)NC(=O)[C@H](CCC(=O)O)NC(=O)[C@H](CCSC)NC(=O)[C@H](Cc2c[nH]c3ccccc23)NC(=O)[C@H](CO)NC(=O)[C@H](C)N)C(C)C)[C@@H](C)CC)CSSC[C@@H]2NC(=O)[C@@H](NC(=O)[C@H](CCCCN)NC(=O)[C@H](CC(N)=O)NC(=O)[C@H](C)NC(=O)[C@H](CC(C)C)NC(=O)[C@H](C)NC(=O)[C@H](CO)NC(=O)[C@H](Cc3ccc(O)cc3)NC(=O)[C@H](CC(C)C)NC(=O)[C@@H](N)Cc3ccc(C(C)=NOCCNC(=O)CNC(=O)CNC(=O)CNC(=O)[C@H](CCCCN)NC(=O)[C@H](CCCCN)NC(=O)[C@H](CCCCN)NC(=O)CC[C@H](NC(=O)CCCCCCCCCCCCC(=O)O)C(=O)O)cc3)CSSC[C@H](NC(=O)CNC(=O)[C@H](C(C)C)NC(=O)[C@H](Cc3c[nH]cn3)NC2=O)C(=O)N[C@@H]([C@@H](C)O)C(=O)N[C@@H](CCCCN)C(=O)N[C@@H](CCCNC(=N)N)C(=O)N[C@@H](CO)C(=O)N[C@@H](CC(C)C)C(=O)N[C@@H](C)C(=O)N[C@@H](CCCNC(=N)N)C(=O)N[C@@H](Cc2ccccc2)C(=O)N[C@H](C(=O)O)CSSC[C@@H](C(=O)NCC(=O)N[C@@H](CCSC)C(=O)N[C@@H](CO)C(=O)N[C@H](C(=O)N[C@@H](Cc2c[nH]c3ccccc23)C(=O)N[C@@H](CO)C(=O)O)[C@@H](C)O)NC1=O [AQ1-GGGKKK-Glu^γ-C13-COOH],0.231,0.1
CC[C@H](C)[C@@H]1NC(=O)[C@H](C)NC(=O)[C@H]([C@@H](C)CC)NC(=O)[C@H](CCC(N)=O)NC(=O)[C@H](C)NC(=O)[C@H](CCCNC(=N)N)NC(=O)[C@H](C(C)C)NC(=O)[C@H](CC(C)C)NC(=O)[C@H](CCC(=O)O)NC(=O)[C@H](CCCNC(=N)N)NC(=O)CNC(=O)[C@@H](NC(=O)[C@H](CC(C)C)NC(=O)[C@H](CCCCN)NC(=O)[C@@H](NC(=O)[C@@H](NC(=O)[C@H](CCC(=O)O)NC(=O)[C@H](CCC(=O)O)NC(=O)[C@H](CCSC)NC(=O)[C@H](Cc2c[nH]c3ccccc23)NC(=O)[C@H](CO)NC(=O)[C@H](C)N)C(C)C)[C@@H](C)CC)CSSC[C@@H]2NC(=O)[C@@H](NC(=O)[C@H](CCCCN)NC(=O)[C@H](CC(N)=O)NC(=O)[C@H](C)NC(=O)[C@H](CC(C)C)NC(=O)[C@H](C)NC(=O)[C@H](CO)NC(=O)[C@H](Cc3ccc(O)cc3)NC(=O)[C@H](CC(C)C)NC(=O)[C@@H](N)Cc3ccc(C(C)=NOCCNC(=O)[C@H](CCCCN)NC(=O)[C@H](CCCCN)NC(=O)CC[C@H](NC(=O)CCCCCCCCCCCCCCC(=O)O)C(=O)O)cc3)CSSC[C@H](NC(=O)CNC(=O)[C@H](C(C)C)NC(=O)[C@H](Cc3c[nH]cn3)NC2=O)C(=O)N[C@@H]([C@@H](C)O)C(=O)N[C@@H](CCCCN)C(=O)N[C@@H](CCCNC(=N)N)C(=O)N[C@@H](CO)C(=O)N[C@@H](CC(C)C)C(=O)N[C@@H](C)C(=O)N[C@@H](CCCNC(=N)N)C(=O)N[C@@H](Cc2ccccc2)C(=O)N[C@H](C(=O)O)CSSC[C@@H](C(=O)NCC(=O)N[C@@H](CCSC)C(=O)N[C@@H](CO)C(=O)N[C@H](C(=O)N[C@@H](Cc2c[nH]c3ccccc23)C(=O)N[C@@H](CO)C(=O)O)[C@@H](C)O)NC1=O [AQ1-KK-Glu^γ-C15-COOH],0.82,8.8
